Each block holds one binder with its values, some of them ahead of it.
Legend:
Mouse PCSK9 [1] = target: T1, Mouse PCSK9 (mouse, UniProt Q80W65 35-694, limits assumed); assay: Biacore (SPR), IgG2 format
T1 construct: Column head prints 'Mouse 9'; also called Mouse 9; mPCSK9

human PCSK9 = target: T2, human PCSK9 (human, UniProt Q8NBP7 31-692); assay: Biacore (SPR), IgG2 captured, PCSK9 as analyte
T2 construct: also called hPCSK9

Rhesus PCSK9 = target: T3, Rhesus PCSK9 (rhesus, UniProt A8T666 31-692, limits assumed); assay: Biacore (SPR), IgG2 captured, PCSK9 as analyte
T3 construct: also called rhPCSK9

rat PCSK9 = rat PCSK9 (rat, UniProt P59996 31-691, limits assumed); assay: Biacore (SPR), IgG2 captured, PCSK9 as analyte
Mouse PCSK9 [2] = target: T1, Mouse PCSK9; assay: Biacore (SPR), IgG2 captured, PCSK9 as analyte

T1 sequence (Q80W65 35-694 limits assumed): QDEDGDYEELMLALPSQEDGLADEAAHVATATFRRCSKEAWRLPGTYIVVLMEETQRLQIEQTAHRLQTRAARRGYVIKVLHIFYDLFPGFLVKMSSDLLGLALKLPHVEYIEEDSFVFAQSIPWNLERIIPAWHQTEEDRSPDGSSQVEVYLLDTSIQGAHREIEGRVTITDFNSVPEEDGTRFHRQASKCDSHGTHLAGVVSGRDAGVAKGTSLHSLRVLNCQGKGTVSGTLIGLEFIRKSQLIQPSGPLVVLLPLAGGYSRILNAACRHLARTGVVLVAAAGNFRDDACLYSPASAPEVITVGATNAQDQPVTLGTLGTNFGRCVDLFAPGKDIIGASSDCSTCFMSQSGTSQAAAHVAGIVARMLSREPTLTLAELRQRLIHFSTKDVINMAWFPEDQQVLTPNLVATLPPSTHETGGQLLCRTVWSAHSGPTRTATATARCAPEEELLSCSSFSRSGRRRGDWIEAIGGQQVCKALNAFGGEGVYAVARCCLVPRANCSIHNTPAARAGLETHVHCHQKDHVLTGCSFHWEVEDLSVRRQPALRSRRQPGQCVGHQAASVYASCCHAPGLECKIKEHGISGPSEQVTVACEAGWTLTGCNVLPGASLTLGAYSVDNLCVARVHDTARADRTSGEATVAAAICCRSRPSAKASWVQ
T2 sequence (Q8NBP7 31-692 limits assumed): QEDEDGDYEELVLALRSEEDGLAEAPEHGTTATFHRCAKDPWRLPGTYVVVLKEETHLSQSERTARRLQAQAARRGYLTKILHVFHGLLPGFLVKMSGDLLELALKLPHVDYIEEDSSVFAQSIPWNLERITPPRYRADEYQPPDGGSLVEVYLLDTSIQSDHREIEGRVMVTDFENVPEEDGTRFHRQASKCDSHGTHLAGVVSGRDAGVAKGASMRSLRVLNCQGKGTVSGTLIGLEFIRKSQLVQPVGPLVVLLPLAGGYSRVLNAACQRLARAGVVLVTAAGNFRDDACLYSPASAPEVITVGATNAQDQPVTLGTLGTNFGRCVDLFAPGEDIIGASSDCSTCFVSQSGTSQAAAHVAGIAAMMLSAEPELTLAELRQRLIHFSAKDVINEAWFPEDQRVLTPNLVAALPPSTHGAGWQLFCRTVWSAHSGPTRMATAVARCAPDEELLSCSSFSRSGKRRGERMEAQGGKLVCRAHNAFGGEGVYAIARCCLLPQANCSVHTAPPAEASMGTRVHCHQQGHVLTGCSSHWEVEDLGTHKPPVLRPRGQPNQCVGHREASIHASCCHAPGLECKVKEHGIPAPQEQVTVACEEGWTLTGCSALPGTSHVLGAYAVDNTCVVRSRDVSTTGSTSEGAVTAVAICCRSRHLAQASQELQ
T3 sequence (A8T666 31-692 limits assumed): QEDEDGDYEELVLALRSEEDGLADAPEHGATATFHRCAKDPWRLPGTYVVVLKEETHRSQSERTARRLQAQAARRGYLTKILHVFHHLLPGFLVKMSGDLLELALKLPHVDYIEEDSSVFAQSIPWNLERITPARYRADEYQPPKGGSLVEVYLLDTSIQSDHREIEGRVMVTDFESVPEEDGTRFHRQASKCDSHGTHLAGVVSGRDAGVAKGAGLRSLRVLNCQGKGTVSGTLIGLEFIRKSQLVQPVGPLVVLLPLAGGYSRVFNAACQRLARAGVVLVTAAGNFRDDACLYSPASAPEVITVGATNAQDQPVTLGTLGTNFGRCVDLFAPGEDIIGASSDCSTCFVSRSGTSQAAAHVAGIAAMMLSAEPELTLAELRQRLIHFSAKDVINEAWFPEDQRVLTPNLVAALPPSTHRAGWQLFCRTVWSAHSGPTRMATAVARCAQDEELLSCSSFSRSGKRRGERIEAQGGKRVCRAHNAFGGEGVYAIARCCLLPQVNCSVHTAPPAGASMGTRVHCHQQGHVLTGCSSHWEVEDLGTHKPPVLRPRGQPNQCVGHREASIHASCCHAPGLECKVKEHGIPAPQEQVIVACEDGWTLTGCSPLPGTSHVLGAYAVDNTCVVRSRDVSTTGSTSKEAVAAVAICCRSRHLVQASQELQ
Sequence of rat PCSK9 (P59996 31-691 limits assumed): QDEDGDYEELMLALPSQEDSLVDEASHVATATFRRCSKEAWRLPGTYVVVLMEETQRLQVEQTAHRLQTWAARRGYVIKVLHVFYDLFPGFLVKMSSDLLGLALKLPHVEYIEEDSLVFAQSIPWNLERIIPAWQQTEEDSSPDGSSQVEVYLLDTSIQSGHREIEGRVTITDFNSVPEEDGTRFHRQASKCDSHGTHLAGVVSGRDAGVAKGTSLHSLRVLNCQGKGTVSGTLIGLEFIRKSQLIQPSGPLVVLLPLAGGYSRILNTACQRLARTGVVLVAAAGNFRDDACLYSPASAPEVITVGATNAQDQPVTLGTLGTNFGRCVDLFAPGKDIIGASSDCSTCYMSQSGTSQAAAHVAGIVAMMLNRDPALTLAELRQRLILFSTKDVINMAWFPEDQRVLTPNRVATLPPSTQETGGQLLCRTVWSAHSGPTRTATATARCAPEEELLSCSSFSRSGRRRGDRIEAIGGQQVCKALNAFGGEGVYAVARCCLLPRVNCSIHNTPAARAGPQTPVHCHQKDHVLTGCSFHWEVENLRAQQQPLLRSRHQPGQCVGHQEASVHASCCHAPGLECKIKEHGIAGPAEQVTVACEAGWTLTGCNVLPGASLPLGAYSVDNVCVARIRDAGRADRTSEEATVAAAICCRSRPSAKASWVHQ

- binding result (Mouse PCSK9 [1]): no binding
- Kd (human PCSK9): 9.98 nM
- Kd (Rhesus PCSK9): 10 nM
B1: AX137 IgG2 (antibody, V domains shown)
VH: EVQLLESGGGLVQPGGSLRLSCKASGYTFSSYGMYWVRQAPGKGLEWIGWIDPGSGGTKYNEKFKGKATISRDNSKNTLYLQMNSLRAEDTAVYYCARERYGYYFDYWGQGTLVTVSS
VL: EIVLTQSPATLSLSPGERATITCRASQYIGSYLNWYQQKPGQAPRLLIYDASNRATGIPARFSGSGSGTDFTLTISSLEPEDFAVYYCQAWDSSPPVVFGGGTKVEIK

- Kd (rat PCSK9): ~100 nM
- Kd (Mouse PCSK9 [2]): 2.76 nM
B2: AX132 IgG2 (antibody)
heavy: EVQLLESGGGLVQPGGSLRLSCKASGYTFSSYGMYWVRQAPGKGLEWIGWIDPGSGGTKYNEKFKGKATISRDNSKNTLYLQMNSLRAEDTAVYYCARERYGYYFDYWGQGTLVTVSSASTKGPSVFPLAPCSRSTSESTAALGCLVKDYFPEPVTVSWNSGALTSGVHTFPAVLQSSGLYSLSSVVTVPSSNFGTQTYTCNVDHKPSNTKVDKTVERKCCVECPPCPAPPVAGPSVFLFPPKPKDTLMISRTPEVTCVVVDVSHEDPEVQFNWYVDGVEVHNAKTKPREEQFNSTFRVVSVLTVVHQDWLNGKEYKCKVSNKGLPAPIEKTISKTKGQPREPQVYTLPPSREEMTKNQVSLTCLVKGFYPSDIAVEWESNGQPENNYKTTPPMLDSDGSFFLYSKLTVDKSRWQQGNVFSCSVMHEALHNHYTQKSLSLSPGK
light: EIVLTQSPATLSLSPGERATITCRASQYVGSYLNWYQQKPGQAPRLLIYDASNRATGIPARFSGSGSGTDFTLTISSLEPEDFAVYYCQVWDSSPPVVFGGGTKVEIKRTVAAPSVFIFPPSDEQLKSGTASVVCLLNNFYPREAKVQWKVDNALQSGNSQESVTEQDSKDSTYSLSSTLTLSKADYEKHKVYACEVTHQGLSSPVTKSFNRGEC

Source: patent US20120213794A1 (published 2012)
